This data set can be described thus: soluble on expression in E. coli; label from the status in PepcDB or PDB records.
Consider “MTAFAAASPRAAVRTGFDGLAISVATRAMMKNLDQNFDAILITGPTASGKSALALRLARERNGVVINADSMQVYDTLRVLTARPSDHEMEGVPHRLYGHVPAGSAYSTGEWLRDISGLLSDLRGEGRFPVIVGGTGLYFKALTGGLSDMPAIPDDLREGLRARLIEEGAAKLHAELVSRDPSMAQMLQPGDGQRIVRALEVLEATGKSIRDFQRASGPMIIDPERAQKFIVLPERPVLHDRINRRFEAMMDSGAVEEVQALLALNLAPDATAMKAIGVAQIADMLTGRMGAAEVIEKSAAATRQYAKRQMTWFRNQMGDDWTRIQPAAALEHHHHHH”, for which the “soluble on expression in E. coli” value was “not soluble”. In the case of “MATSNLLKNKGSLQFEDKWDFMHPIVLKLLRQESVTKQQWFDLFSDVHAVCLWDDKGSSKIHQALKEDILEFIKQAQARVLSHQDDTALLKAYIVEWRKFFTQCDILPKPFCQLEVTLLGKQSSNKKSNMEDSIVRKLMLDTWNESIFSNIKNRLQDSAMKLVHAERLGEAFDSQLVIGVRESYVNLCSNPEDKLQIYRDNFEKAYLDSTERFYRTQAPSYLQQNGVQNYMKYADAKLKEEEKRALRYLETRRECNSVEALMECCVNALVTSFKETILAECQGMIKRNETEKLHLMFSLMDKVPNGIEPMLKDLEEHIISAGLADMVAAAETITTDSEKYREQLDTLFNRFSKLVKEAFQDDPRFLTARDKAYKAVVNDATIFKAENLYFQ”, the “soluble on expression in E. coli” value was “soluble”.

Take “MGSSHHHHHHSSGLVPRGSHMRQLTEEETKVVFEKLAGYIGRNISFLVDNKELPHVFRLQKDRVYYVPDHVAKLATSVARPNLMSLGICLGKFTKTGKFRLHITSLTVLAKHAKYKIWIKPNGEMPFLYGNHVLKAHVGKMSDDIPEHAGVIVFAMNDVPLGFGVSAKSTSESRNMQPTGIVAFRQADIGEYLRDEDTLFT”: the “soluble on expression in E. coli” value was “soluble”. For “GSRVALVTGANRGIGLAIARELCRQFSGDVVLTARDVARGQAAVQQLQAEGLSPRFHQLDIDDLQSIRALRDFLRKEYGGLNVLVNNAAVAFKSDDPMPFDIKAEMTLKTNFFATRNMCNELLPIMKPHGRVVNISSLQCLRAFENCSEDLQERFHSETLTEGDLVDLMKKFVEDTKNEVHEREGWPNSPYGVSKLGVTVLSRILARRLDEKRKADRILVNACCPGPVKTDMDGKDSIRTVEEGAETPVYLALLPPDATEPQGQLVHDKVVQNW”, the “soluble on expression in E. coli” value was “soluble”. The same measure for “MTLMVPFKQVDVFTEKPFMGNPVAVINFLEIDENEVSQEELQAIANWTNLSETTFLFKPSDKKYDYKLRIFTPRSELPFAGHPTIGSCKAFLEFTKNTTATSLVQECKIGAVPITINEGLISFKAPMADYESISSEMIADYEKAIGLKFIKPPALLHTGPEWIVALVEDAETCFNANPNFAMLAHQTKQNDHVGIILAGPKKEAAIKNSYEMRAFAPVINVYEDPVCGSGSVALARYLQEVYKFEKTTDITISEGGRLKRNGLMLASIKKEADNSTSYYIAGHATTVIDGKIKVHHHHHH”: “soluble”; for “MAHHHHHHMFTKFLSRVKAMPPRSGDWANKLGPVALMGCSVGAHMSSTKLLNHFYTSSRDCDMYAELTFHEPGPVECPPETVIFFPVIQCGEMLDEKGEPSEATKDDWYLAMTESTTELLEKGYVPVSVGGDGSATLAMVEAYKRLFRSSEVVLIHCSARPSLEKAEQPIRVLLEKDLLKGVVEIGNRCVSSGDRKIRKQHKVMYMDMQAIYAKGLFCIRDIRNDYPVFLSIDADVLDPAFAPGVESPVPGGFSTRDLLHIMTGIRGPKVAGIDIHGYHPSLDMCRSDGVGLTQMALTKVLKESIVKAYTISTQTAEEGLERVRLMQRQGTLSDNPYPDH”: “not soluble”; for “MSDPRAPRLCVLIDADNVPANYAEAIFEEIAALGEASVRRIYGDWSAMRLNAWAKKVAALGLVADQQFSNTKGKNASDIGLVISAMDFLHSGLFDGFVLVSSDSDFTRLAARIREQGLDVYGIGEKKTPEAFRMACKRFIYVENLGSDEPPAREPRPADEPQQPPAQRGREKEEPMKAIPLIAAAMRAIDPEGEWYSLGQIGQFITQANPDFDTRTYGSAKLSDLIKKISRFEVKPGPGGQLLARDIALEHHHHHH”: “not soluble”. Turning to “VVDFGALPPEINSARMYAGPGSASLVAAAKMWDSVASDLFSAASAFQSVVWGLTTGSWIGSSAGLMVAAASPYVAWMSVTAGQAELTAAQVRVAAAAYETAYGLTVPPPVIAENRAELMILIATNLLGQNTPAIAVNEAEYGEMWAQDAAAMFGYAATAATATEALLPFEDAPLITNPGGLLEQAVAVEEAIDTAAANQLMNNVPQALQQLAQPTKSIWPFDQLSELWKAISPHLSPLSNIVSMLNNHVSMTNSGVSMASTLHSMLKGFAPAAAQAVETAAQNGVQAMSSLGSQLGSSLGSSGLGAGVAANLGRAASVGSLSVPQAWAAANQAVTPAARALPLTSLTSAAQTAPGHMLGGLPLGQLTNSGGGFGGVSNALRMPPRAYVMPRVPAAG”, the “soluble on expression in E. coli” value is on record as “soluble”. The same measure for “SEMLASLKEHPNELLDLLNSIITDFELAVDDLIENFMQSDFDALKLTMHTTKGMALNLGLKILASQALELETQLKMNQVPAIEQLQMLINRLQVNIHQGHRLRDELVKAQQNSEQVF”: “not soluble”; for “MGSDKIHHHHHHMTIDDFYSFITLYKTRNISDAAIALNITQSALSKRLRNMQQELDTALISTRNKRQLTITESGEVFFRYAQTLTAQYQLLQQELLDYRELRRGTIQIGSVPVMAQYGLASKMSQFMQDYPQINFSLAELEGADLLTQLQHQSFDLGILRDVQSQQLNHSQFDAVTLTDDELKVVLPSDHPLAHQTSIQLPDLRPFDVVTLSPGSGVYERISERYQQAGFTPNIRFSTPHIETLLAMIAHTDRVTFLFAKSVAPFMTADFVMRPFTDPIISHLQLVYPHGTLSPAAQRFIHYLTD”: “not soluble”; for “MSLKITSIAVYQVDLPLREGNYAWSEGKSVSVFDSTVVRIETDSGIFGHGEVCPLGPVYLPAYAAGVRTGVAEIAPALIGDDPTELGKLNRKMDYLLKGHPYVKSALDVACWDIFGQAAGLPICTLLGGRYGEDFTLYRAISQRPAAEMAESVAMYRGEGYRRFQLKVGGDPNEDILRIFEAAEMLEPGDKLIADANTGWLKHEALRVVNAVRDVDVYIEQPCPSYEDCRAIRERTTLPFILDEVIDSVDMIVRCAADRAADVVNLKISKLGGLTKARQARDLCASLGLAMTIEDSWGGDIVTAAIAHLAHSTPTDYLFSSTDFNSYVTKSIADGAPQRDNGRLAAAREPGLGVKPKLDVLGKPVATYGKEGHHHHHH”: “soluble”. The same measure for “GPGSMSHSSLKRAPEITPQAATDKDSILCRSAHAKPLSFTTAPRDSAMVKLDVTLLRFMEDEDFRVLTALEMAMRNHDVAPTALVERIAQLPHGGCRKRLNNLLKHKMIHHENTMYDGYAMKYGAYDYLALRTLSKRGTCTGVGHRIGCGKESDIILVRDEAGHECVLKLQRLGRCSFRSVARNRDYKGNGRARHGESWFYLSRLASQKEYSFMKMLYDEGFPVPKPIDQNRHALLMELVPGTLLNNITELGDASKVYRRALELMVKLAESGLIHGDFNEFNLMITDDQRVIMIDFPQMISINHPNASELFDRDVQNLANFFHRRFKVDTTWFPSLEKDVVRKNELDKQVYASGHFTRKQQEDLERLMLEGFQRGEKSDDEAGSQARDSDASDDDGDENALQRSDIGNADVDAGVAGKFMTIPGFARGGESDEEREDSSDDDASEGRLLDEAMGAARERRQGEFYAHNADRNANFFPDGKINEDHVKHQIRKSIRRKDNHDFNRHLHRNVQKGRQKQKIQRQLKSSNGGGFFD”: “not soluble”. Then “MPNLLDDSFDPTFQSTSKKLVLPSIRKVQPEYDNLPEEQGVNDFSSDELMKLLSFMEGEVQAREDVIDHLKRERTKILLSEAKYGKLNMNDPFAALRRDSAITGEQIDEEKIVQMYESQVDQLDKMMAVQKQSQRNAAVLLVALEKKQYKLVKKLEADREAKIRYAKQGDDLVAHLEKERNQLQQQIEFHIEEKRKAEIAKDKMEMTLGNEKKRHESIVLYLIQERKQMLLKMHELRVKAEQIMLQNQNDPTKPGPSSALSERELIEELKKEVTFLRAERESLTKTQKMVKTENLSLRETVRGQEADLQMLRRNLTLTGAKMSIDKPGNVLPQLPPDTGSLIMANRGAKPAVNRQQPAPPPVARLPNSATFPTEKSRLPRAPPPAVTTPVPRMSIGSLPASSSNVPRTMSSPVKKTPVMGVSSTAVRRPQSAATTTMPTTSVITNTSAVMPLSPDLEQLEAAIQSMNVVTASPPAYSTAMAKRSSSLPREANNNPPGAPIRRSTMNGGMHTSTTGVVSTRIAGPSSNVASERKLSGTVKRNGILAKAFGSSK”, with “not soluble”; and “PAPTPSSSPVPTLSPEQQEMLQAFSTQSGMNLEWSQKCLQDNNWDYTRSAQAFTHLKAKGEIPEVAFMK”, with “soluble”. On to “MITLPQLITTDTDMTAGLTSGKTTGSAEDFLALLAGALGADGAQGKDARITLADLQAAGGKLSKELLTQHGEPGQAVKLADLLAQKANATDETLTDLTQAQHLLSTLTPSLKTSALAALSKTAQHDEKTPALSDEDLASLSALFAMLPGQPVATPVAGETPAENHIALPSLLRGDMPSAPQEETHTLSFSEHEKGKTEASLARASDDRATGPALTPLVVAAAATSAKVEVDSPPAPVTHGAAMPTLSSATAQPLPVASAPVLSAPLGSHEWQQTFSQQVMLFTRQGQQSAQLRLHPEELGQVHISLKLDDNQAQLQMVSPHSHVRAALEAALPMLRTQLAESGIQLGQSSISSESFAGQQQSSSQQQSSRAQHTDAFGAEDDIALAAPASLQAAARGNGAVDIFA”, for which the “soluble on expression in E. coli” value is “not soluble”. Then “MSLTLSPTTIFPARCIHTMNATQPRATHVAVREGRILDVGDASLREAWPDAVVDSRFSDKVLLPGLIEGHSHLLEGGMWRFVYVGYYDRRGPDGRVWPGLKSYEAVIERLRAAEALMPDAQAPLLAWGFDPIHFGGQRMTTCHLDQVSKTRRIVVLHASVHLLNVNTAMLRQADIHAGLRIDGIVRAADGTPTGELQEFAAMFMVFKHIGNVFFDAGQSEEGIRNFAKIAQQAGVTTATDLSHALADDMVDNLVRVTGEDDFPLRLVAAYSPMRDMNGRSVDRVVRATQRNTAKLHFGLVKLVIDGSIQGYTARVRWPGYHNGAPNGMWIIAPQQLRELLMEYHKAGLTIHIHTNGDEATEVAMDALESVLAEYPRWDHRHTLQHCQMADAAQFRRMARLGMCANLFANHLYFWGDAHYTDTLGPARAFRMNAAKTALQAGVPISLHSDAPITPIGPLFTAWCAVNRVTAGGRILGSQERIPVMDALHAMTLGAAYTLKLDHLIGSIEVGKLADFAVLEADPLEVAPQDLAGIGIWGTVLGGRSFPAPQLSEGHHHHHH”, with “soluble”.

As to “MTAFVHTLSDGMELTVEIKRRAKKNLIIRPAGTHTIRISVPPCFSVSALNRWLYENEAVLRQTLAKTPPPQTAENRLPESILFHGRQLALTAHQDTQILLMPSEIRVPEGAPEKQLALLRDFLERQAHSYLIPRLERHARTTQLFPAPSSLTSAKTFWGVCRKTTGIRFNWRLVGAPEYVADYVCIHELCHLAHADHSRAFWALTRRFAPYTPEAKQWLKIHGRELFALGLEHHHHHH”, the “soluble on expression in E. coli” value is recorded as “not soluble”. Then “MSLSGSITVPNYSDTNRVPGLYFALDNSKANTASVTRRVLILGQTIAGSGAPNVATLSAGYSDAVAKYGAASQCARMVSAYRAIDAQGEVWVLPLADDTSAQAATGKVTVSGTATSAGTLPLYVGDQLISVAVDTGDTAATVAANIATATAAVSGLPAGASAAEGVVTFTALNKGQSGNDILLGVALLGTAGGQAVPDGLTIALTQFSGGTADPTTLATVLALQGERVYDLIIHPYTDSGSLTALKIWLNDTAGRWSPMLQLYGHAITAYRGTYGAATSLGLAQNDQHATIMPIGDSPSDPLTWAAQIGARTAMSMRSNPALPITAVSLTVMPPTDVGRYSSEQRNSLLYDGLSTFTVDDSGTVNIERLVTTYQTNASGLPDNSYLDIETMLTAEICMQDMRSYLAGQYGGCILVADGTKISAGAKATTAKLIGKACASRYRWQTTQLWVQNADNFAANIVAENAGNGVVKLLMPYDFANQLRIIAGSVQFVKSEGHHHHHH”, with “soluble”.

Values taken from the DeepSol protein solubility set.
